The record followed here is the supplement of paper PMC10567573.

B1: FADS1 (parent)
chain: LNFQIEHHLFPTMPRHNYHKVAPL
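Note: lentivirally expressed fusions sorted by FACS into six bins by GFP to DsRed ratio, PSI derived from sequencing read proportions per bin multiplied by bin number.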

The variants in the data set derive from B1. Kind of data set: protein stability index of a GFP-peptide fusion (GPS, HEK-293T) (PSI 1-6); higher = more stable. As to conditions: c terminus: a fixed tail appended.
Regarding LNFSIEHHLFPTMPRHNYHKVAPL [Q4S], the protein stability index was 1.3.
As for LNFRIEHHLFPTMPRHNYHKVAPL [Q4R], the protein stability index worked out at 1.6.
Then LNFVIEHHLFPTMPRHNYHKVAPL [Q4V], with 3.42; and LNFTIEHHLFPTMPRHNYHKVAPL [Q4T], with 2.74; and LNFNIEHHLFPTMPRHNYHKVAPL [Q4N], with 2.22.
For LNFIIEHHLFPTMPRHNYHKVAPL [Q4I], the protein stability index is 3.5.
Regarding LNFKIEHHLFPTMPRHNYHKVAPL [Q4K], the protein stability index came to 1.92.
Consider LNFPIEHHLFPTMPRHNYHKVAPL [Q4P], for which the protein stability index turned out to be 1.24.
In the case of LNFYIEHHLFPTMPRHNYHKVAPL [Q4Y], the protein stability index is 3.01.
For the variant LNFLIEHHLFPTMPRHNYHKVAPL [Q4L], the protein stability index was 3.1.
Then LNFQIEQHLFPTMPRHNYHKVAPL [H7Q], with 2.45; and LNFQIEEHLFPTMPRHNYHKVAPL [H7E], with 1.76; and LNFQIERHLFPTMPRHNYHKVAPL [H7R], with 1.65.
Regarding LNFQIEAHLFPTMPRHNYHKVAPL [H7A], the protein stability index worked out at 2.31.
Then LNFQIEWHLFPTMPRHNYHKVAPL [H7W], with 3.85; and LNFQIEPHLFPTMPRHNYHKVAPL [H7P], with 2.19; and LNFQIEDHLFPTMPRHNYHKVAPL [H7D], with 1.93.
For the variant LNFQIEIHLFPTMPRHNYHKVAPL [H7I], the protein stability index is 3.32.
On to LNFQIEKHLFPTMPRHNYHKVAPL [H7K], for which the protein stability index came to 2.75.
On to LNFQIESHLFPTMPRHNYHKVAPL [H7S], for which the protein stability index came out at 1.81.
Turning to LNFQIEGHLFPTMPRHNYHKVAPL [H7G], the protein stability index was determined as 1.55.
LNFQIEMHLFPTMPRHNYHKVAPL [H7M]: the protein stability index amounted to 2.96.
For LNFQIETHLFPTMPRHNYHKVAPL [H7T], the protein stability index was found to be 2.82.
Then LNFQIENHLFPTMPRHNYHKVAPL [H7N], with 1.4; and LNFQIECHLFPTMPRHNYHKVAPL [H7C], with 3.38.
Then LNFQIELHLFPTMPRHNYHKVAPL [H7L], with 3.47.
Then LNFQIFHHLFPTMPRHNYHKVAPL [E6F], with 3.4.
LNFQICHHLFPTMPRHNYHKVAPL [E6C]: the protein stability index was 2.65.
For LNFQIPHHLFPTMPRHNYHKVAPL [E6P], the protein stability index is 2.11.
LNFQIVHHLFPTMPRHNYHKVAPL [E6V]: the protein stability index is 3.6.
For the variant LNFQIKHHLFPTMPRHNYHKVAPL [E6K], the protein stability index was found to be 2.21.
With LNFQIRHHLFPTMPRHNYHKVAPL [E6R], the protein stability index is 2.07.
For the variant LNFQISHHLFPTMPRHNYHKVAPL [E6S], the protein stability index turned out to be 1.8.
As to LNFQIAHHLFPTMPRHNYHKVAPL [E6A], the protein stability index amounted to 2.54.
Then LNFQIMHHLFPTMPRHNYHKVAPL [E6M], with 2.24.
Take LNFQIWHHLFPTMPRHNYHKVAPL [E6W]: the protein stability index is 2.57.
For the variant LNFQIGHHLFPTMPRHNYHKVAPL [E6G], the protein stability index was 1.77.
As for LNFQIHHHLFPTMPRHNYHKVAPL [E6H], the protein stability index amounted to 2.31.
For LNFQIQHHLFPTMPRHNYHKVAPL [E6Q], the protein stability index is 2.38.
For the variant LNFQIDHHLFPTMPRHNYHKVAPL [E6D], the protein stability index was 2.54.
For the variant LNFQINHHLFPTMPRHNYHKVAPL [E6N], the protein stability index was determined as 1.19.
As for LNFQIYHHLFPTMPRHNYHKVAPL [E6Y], the protein stability index stood at 2.06.
With LNFQILHHLFPTMPRHNYHKVAPL [E6L], the protein stability index amounted to 2.27.
Turning to LNFQIEHHLFPTKPRHNYHKVAPL [M13K], the protein stability index was 1.75.
As for LNFQIEHHLFPTIPRHNYHKVAPL [M13I], the protein stability index was determined as 2.35.
For LNFQIEHHLFPTFPRHNYHKVAPL [M13F] the value was 1.97.
In the case of LNFQIEHHLFPTHPRHNYHKVAPL [M13H], the protein stability index turned out to be 2.04.
Consider LNFQIEHHLFPTWPRHNYHKVAPL [M13W], for which the protein stability index came to 2.66.
Take LNFQIEHHLFPTAPRHNYHKVAPL [M13A]: the protein stability index came to 2.02.
As for LNFQIEHHLFPTLPRHNYHKVAPL [M13L], the protein stability index worked out at 1.62.
With LNFQIEHHLFPTQPRHNYHKVAPL [M13Q], the protein stability index stood at 1.15.
With LNFQIEHHLFPTEPRHNYHKVAPL [M13E], the protein stability index stood at 1.35.
Then LNFQIEHHLFPTYPRHNYHKVAPL [M13Y], with 2.83; and LNFQIEHHLFPTRPRHNYHKVAPL [M13R], with 1.4.
With LNFQIEHHLFPTSPRHNYHKVAPL [M13S], the protein stability index came to 2.59.
In the case of LNFQIEHHLFPTDPRHNYHKVAPL [M13D], the protein stability index was 1.82.
As for LNFQIEHHLFPTVPRHNYHKVAPL [M13V], the protein stability index stood at 2.6.
On to LNFQIEHHLFPTNPRHNYHKVAPL [M13N], for which the protein stability index is 1.91.
Then LNFQIEHHLFPTCPRHNYHKVAPL [M13C], with 1.75; and LNFQIEHHLFPTGPRHNYHKVAPL [M13G], with 2.13; and LNFQIEHWLFPTMPRHNYHKVAPL [H8W], with 2.58.
For LNFQIEHVLFPTMPRHNYHKVAPL [H8V] the value was 1.5; for LNFQIEHMLFPTMPRHNYHKVAPL [H8M], 2.14; for LNFQIEHKLFPTMPRHNYHKVAPL [H8K], 1.93.
Regarding LNFQIEHFLFPTMPRHNYHKVAPL [H8F], the protein stability index amounted to 2.4.
Take LNFQIEHGLFPTMPRHNYHKVAPL [H8G]: the protein stability index came to 1.58.
As to LNFQIEHTLFPTMPRHNYHKVAPL [H8T], the protein stability index turned out to be 2.26.
As for LNFQIEHCLFPTMPRHNYHKVAPL [H8C], the protein stability index amounted to 2.41.
Consider LNFQIEHSLFPTMPRHNYHKVAPL [H8S], for which the protein stability index was 2.12.
Take LNFQIEHNLFPTMPRHNYHKVAPL [H8N]: the protein stability index turned out to be 2.06.
LNFQIEHQLFPTMPRHNYHKVAPL [H8Q]: the protein stability index was determined as 2.35.
For LNFQIEHPLFPTMPRHNYHKVAPL [H8P] the value was 2.11; for LNFQIEHILFPTMPRHNYHKVAPL [H8I], 3.23.
In the case of LNFQIEHRLFPTMPRHNYHKVAPL [H8R], the protein stability index came out at 1.74.
LNFQIEHYLFPTMPRHNYHKVAPL [H8Y]: the protein stability index worked out at 2.57.
As to LNFQIEHLLFPTMPRHNYHKVAPL [H8L], the protein stability index came to 2.44.
For LNFQIEHDLFPTMPRHNYHKVAPL [H8D] the value was 2.14.
Then LNFQIEHALFPTMPRHNYHKVAPL [H8A], with 1.87; and LNFQIEHELFPTMPRHNYHKVAPL [H8E], with 3.1; and LNFQIEHHLFPTMGRHNYHKVAPL [P14G], with 2.43.
For LNFQIEHHLFPTMFRHNYHKVAPL [P14F] the value was 2.39.
LNFQIEHHLFPTMSRHNYHKVAPL [P14S]: the protein stability index turned out to be 2.71.
Turning to LNFQIEHHLFPTMCRHNYHKVAPL [P14C], the protein stability index amounted to 3.64.
For LNFQIEHHLFPTMNRHNYHKVAPL [P14N] the value was 3.36.
On to LNFQIEHHLFPTMERHNYHKVAPL [P14E], for which the protein stability index worked out at 2.13.
Then LNFQIEHHLFPTMHRHNYHKVAPL [P14H], with 1.9.
For LNFQIEHHLFPTMMRHNYHKVAPL [P14M], the protein stability index worked out at 2.44.
As for LNFQIEHHLFPTMRRHNYHKVAPL [P14R], the protein stability index was determined as 1.76.
As to LNFQIEHHLFPTMARHNYHKVAPL [P14A], the protein stability index was 2.64.
On to LNFQIEHHLFPTMDRHNYHKVAPL [P14D], for which the protein stability index turned out to be 2.52.
Then LNFQIEHHLFPTMQRHNYHKVAPL [P14Q], with 2.54; and LNFQIEHHLFPTMTRHNYHKVAPL [P14T], with 1.9; and LNFQIEHHLFPTMLRHNYHKVAPL [P14L], with 1.18.
Regarding LNFQIEHHLFPTMIRHNYHKVAPL [P14I], the protein stability index was 2.08.
